The text below walks through data of JP2020002075A (dated 2020).

Assay [1] concerns the target T1, ラットポドプラニン (ラットポドプラニン提示CHO細胞, CHO-rPDPN) (rat, UniProt Q64294 23-166).
T1 construct: whole, on cells
T1 sequence (looked up): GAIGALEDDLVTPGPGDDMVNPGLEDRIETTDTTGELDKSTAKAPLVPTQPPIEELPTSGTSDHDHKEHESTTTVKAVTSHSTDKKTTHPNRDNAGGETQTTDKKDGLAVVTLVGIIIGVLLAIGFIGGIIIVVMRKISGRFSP
Kind of assay: flow cytometry on CHO-rPDPN, fit f(x)=a*x/(x+Kd). Background: Flow cytometry measures light scatter and fluorescence of single cells or particles in a stream.

In assay [2] the target is T2, ヒトポドプラニン (ヒトポドプラニン提示CHO細胞, CHO-hPDPN) (human, UniProt Q86YL7 23-162).
T2 construct: whole, on cells
T2 sequence (looked up): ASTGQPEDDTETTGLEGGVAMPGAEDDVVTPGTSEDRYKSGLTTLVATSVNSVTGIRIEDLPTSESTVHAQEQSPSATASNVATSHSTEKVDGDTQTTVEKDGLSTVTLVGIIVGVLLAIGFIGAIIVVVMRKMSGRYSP
The assay can be described thus: flow cytometry on CHO-hPDPN, fit f(x)=a*x/(x+Kd).

For assay [3], the target named is T3, ポドプラニン (ポドプラニン提示CHO細胞, 種の記載なし).
T3 construct: whole, on cells
The assay can be described thus: flow cytometry; cells and species not named at this place.

B1: clone 1 (第一世代交差性一本鎖可変領域断片) (scFv)
scFv: EVQLKESGGGLVQSGGSLRLSCAASGFSLTDYGVNWVRQAPGKGLEWVGVIWGGGNTYYNSALKSRFTISKDNSKNTLYLQMNSLRAEDTAVYYCAKHRGAWGQGTLVTVSAAGGGGSGGGGSGGGGSDIVMTQSPSTLAVSLGEKATINCKSSKSLLNSGNQKNYLIWYQQKPGQPPKLLIYGASTRESGVPDRFSGSVSGTDFTLTISSLQAEDLAVYYCQNDHTYPLTFGQGTKVEIKRTV
notes: From the Hu2LPMab-16 scFv library; also called クローン1; 第一世代交差性抗体; not shown: C-terminal FLAG tag and His tag
For B1, the Kd came to 0.108 µM in assay [1], 0.0063 µM in assay [2] and 0.108 µM in assay [3].

B2: clone 2 (scFv)
scFv: EVQLKESGGGLVQPGGSLRLSCAASGFSLTDYGVNWVRQAPGKGLEWVGVIWGGGNTYYNSALKSRFTISKDNSKNTLYLQMNSLRAEDTAVYYCAKHRGAWGQGTLVTVSAAGGGGSGGGGSGGGGSDIVMTQSPSNLAVSLGEKATINCKSSQSLLNSGNQKNYLNWYQQKPGQPPKLLIYRASTRESGVPDRFSGSVSGTDFTLTISSLQAEDLAVYYCQNDHTYPLIFGQGTKVEIKRTV
notes: From the Hu2LPMab-16 scFv library; also called クローン2; not shown: C-terminal FLAG tag and His tag
Regarding B2, the values for the equilibrium dissociation constant (Kd) in assay [1] and in assay [2] were 0.5 µM and 0.0065 µM, respectively.

The Kd is a measure of binding affinity in units of concentration.
